Assays:
GST-JNK1α1 = GST-JNK1α1 (UniProt P45983); experiment: pull-down; GST-JNK isoform (2 μg) or unfused GST on glutathione beads, rotated 1 h at +4 °C with cleared 293T lysate holding the luciferase fusion (7,000 units), low-salt buffer with 0.5% Igepal, washed three times; luciferase on beads as per cent of input
JNK (Homo sapiens) = JNK (Homo sapiens) (UniProt P45983); details: cited from earlier work

## luciferase-fused OptoJNKi.lsm (AsLOV2Jα I539E-JIP11) (from UniProt Q9UQF2 157-167) (designed binder)
GST-JNK1α1
  ratio of pulldown, lit-state mutant against dark-state mutant: 30 fold

## JIP peptide (from UniProt Q9UQF2)
JNK (Homo sapiens)
  Kd: 800 nM

Reference: article PMC5437309
